From patent US20120172293A1 (Takeda / Millennium, published 2012)
Non-standard residues stand in square brackets, D forms with d. *: point of attachment. Cha = N[C@@H](CC1CCCCC1)C(=O)O; Isobutyryl = CC(C)C(=O)*; Nva = CCC[C@H](N)C(=O)O; Abu = CC[C@H](N)C(=O)O; Aib = CC(C)(N)C(=O)O; Bz = O=C(c1ccccc1)*

Tests used:
[1] = target: human Y2 receptor (human) (UniProt P49146); assay: RBA: [125I]-PYY displacement, hY2R/CHO membranes
[2] = target: human Y2 receptor (human) (UniProt P49146); assay: cell-based or functional assay

Sequence of human Y2 receptor (human) (P49146 whole entry): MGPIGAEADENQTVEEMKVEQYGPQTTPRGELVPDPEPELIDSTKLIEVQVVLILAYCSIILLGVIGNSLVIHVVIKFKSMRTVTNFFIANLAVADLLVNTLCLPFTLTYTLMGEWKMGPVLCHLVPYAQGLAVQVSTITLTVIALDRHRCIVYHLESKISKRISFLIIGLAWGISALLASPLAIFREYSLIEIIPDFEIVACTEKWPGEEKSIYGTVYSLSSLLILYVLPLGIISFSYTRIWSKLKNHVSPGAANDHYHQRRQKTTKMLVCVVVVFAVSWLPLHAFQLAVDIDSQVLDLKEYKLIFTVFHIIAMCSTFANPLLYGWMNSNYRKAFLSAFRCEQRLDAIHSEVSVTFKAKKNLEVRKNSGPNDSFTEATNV

| Binder | IC50 Ratio (vs PYY(3-36)) [1] | GBA EC50 Ratio (vs PYY(3-36)), [35S]GTPγS [2] |
| --- | --- | --- |
| Bz-RN[Cha][Cha]NL[Aib]TRQR[Cha]-NH2 (SMILES CC(C)C[C@H](NC(=O)[C@H](CC(N)=O)NC(=O)[C@H](CC1CCCCC1)NC(=O)[C@H](CC1CCCCC1)NC(=O)[C@H](CC(N)=O)NC(=O)[C@H](CCCNC(=N)N)NC(=O)c1ccccc1)C(=O)NC(C)(C)C(=O)N[C@H](C(=O)N[C@@H](CCCNC(=N)N)C(=O)N[C@@H](CCC(N)=O)C(=O)N[C@@H](CCCNC(=N)N)C(=O)N[C@@H](CC1CCCCC1)C(N)=O)[C@@H](C)O) [Benzoyl-[Asn26, Cha27,28,36, Aib31]-PYY(25-36)] | 19 | 21 |
| Isobutyryl-R[Abu][Cha]QNL[Aib]TRQR[Cha]-NH2 (SMILES CC[C@H](NC(=O)[C@H](CCCNC(=N)N)NC(=O)C(C)C)C(=O)N[C@@H](CC1CCCCC1)C(=O)N[C@@H](CCC(N)=O)C(=O)N[C@@H](CC(N)=O)C(=O)N[C@@H](CC(C)C)C(=O)NC(C)(C)C(=O)N[C@H](C(=O)N[C@@H](CCCNC(=N)N)C(=O)N[C@@H](CCC(N)=O)C(=O)N[C@@H](CCCNC(=N)N)C(=O)N[C@@H](CC1CCCCC1)C(N)=O)[C@@H](C)O) [Isobutanoyl-[Abu26, Cha27,36, Gln28, Aib31]-PYY(25-36)] | 45 | 30 |
| Isobutyryl-R[Abu][Cha]HNL[Aib]TRQR[Cha]-NH2 (SMILES CC[C@H](NC(=O)[C@H](CCCNC(=N)N)NC(=O)C(C)C)C(=O)N[C@@H](CC1CCCCC1)C(=O)N[C@@H](Cc1c[nH]cn1)C(=O)N[C@@H](CC(N)=O)C(=O)N[C@@H](CC(C)C)C(=O)NC(C)(C)C(=O)N[C@H](C(=O)N[C@@H](CCCNC(=N)N)C(=O)N[C@@H](CCC(N)=O)C(=O)N[C@@H](CCCNC(=N)N)C(=O)N[C@@H](CC1CCCCC1)C(N)=O)[C@@H](C)O) [Isobutanoyl-[Abu26, Cha27,36, His28, Aib31]-PYY(25-36)] | 19 | 13 |
| Isobutyryl-R[Abu][Cha]SNL[Aib]TRQR[Cha]-NH2 (SMILES CC[C@H](NC(=O)[C@H](CCCNC(=N)N)NC(=O)C(C)C)C(=O)N[C@@H](CC1CCCCC1)C(=O)N[C@@H](CO)C(=O)N[C@@H](CC(N)=O)C(=O)N[C@@H](CC(C)C)C(=O)NC(C)(C)C(=O)N[C@H](C(=O)N[C@@H](CCCNC(=N)N)C(=O)N[C@@H](CCC(N)=O)C(=O)N[C@@H](CCCNC(=N)N)C(=O)N[C@@H](CC1CCCCC1)C(N)=O)[C@@H](C)O) [Isobutanoyl-[Abu26, Cha27,36, Ser28, Aib31]-PYY(25-36)] | 49 | 35 |
| Bz-RH[Nva][Cha]NL[Aib]TRQR[Cha]-NH2 (SMILES CCC[C@H](NC(=O)[C@H](Cc1c[nH]cn1)NC(=O)[C@H](CCCNC(=N)N)NC(=O)c1ccccc1)C(=O)N[C@@H](CC1CCCCC1)C(=O)N[C@@H](CC(N)=O)C(=O)N[C@@H](CC(C)C)C(=O)NC(C)(C)C(=O)N[C@H](C(=O)N[C@@H](CCCNC(=N)N)C(=O)N[C@@H](CCC(N)=O)C(=O)N[C@@H](CCCNC(=N)N)C(=O)N[C@@H](CC1CCCCC1)C(N)=O)[C@@H](C)O) [Benzoyl-[Nva27, Cha28,36, Aib31]-PYY(25-36)] | 13 | 8.6 |
| Bz-RHH[Cha]NL[Aib]TRQR[Cha]-NH2 (SMILES CC(C)C[C@H](NC(=O)[C@H](CC(N)=O)NC(=O)[C@H](CC1CCCCC1)NC(=O)[C@H](Cc1c[nH]cn1)NC(=O)[C@H](Cc1c[nH]cn1)NC(=O)[C@H](CCCNC(=N)N)NC(=O)c1ccccc1)C(=O)NC(C)(C)C(=O)N[C@H](C(=O)N[C@@H](CCCNC(=N)N)C(=O)N[C@@H](CCC(N)=O)C(=O)N[C@@H](CCCNC(=N)N)C(=O)N[C@@H](CC1CCCCC1)C(N)=O)[C@@H](C)O) [Benzoyl-[His27, Cha28,36, Aib31]-PYY(25-36)] | 5.6 | 4.3 |
